# Measurements from IntAct's records for PubMed 17964261.
# B1: Proline-serine-threonine phosphatase-interacting protein 1 (Homo sapiens), O43586 (parent)
# chain: MMPQLQFKDAFWCRDFTAHTGYEVLLQRLLDGRKMCKDMEELLRQRAQAEERYGKELVQIARKAGGQTEINSLRASFDSLKQQMENVGSSHIQLALTLREELRSLEEFRERQKEQRKKYEAVMDRVQKSKLSLYKKAMESKKTYEQKCRDADDAEQAFERISANGHQKQVEKSQNKARQCKDSATEAERVYRQSIAQLEKVRAEWEQEHRTTCEAFQLQEFDRLTILRNALWVHSNQLSMQCVKDDELYEEVRLTLEGCSIDADIDSFIQAKSTGTEPPAPVPYQNYYDREVTPLTSSPGIQPSCGMIKRFSGLLHGSPKTTSLAASAASTETLTPTPERNEGVYTAIAVQEIQGNPASPAQEYRALYDYTAQNPDELDLSAGDILEVILEGEDGWWTVERNGQRGFVPGSYLEKL
# partner: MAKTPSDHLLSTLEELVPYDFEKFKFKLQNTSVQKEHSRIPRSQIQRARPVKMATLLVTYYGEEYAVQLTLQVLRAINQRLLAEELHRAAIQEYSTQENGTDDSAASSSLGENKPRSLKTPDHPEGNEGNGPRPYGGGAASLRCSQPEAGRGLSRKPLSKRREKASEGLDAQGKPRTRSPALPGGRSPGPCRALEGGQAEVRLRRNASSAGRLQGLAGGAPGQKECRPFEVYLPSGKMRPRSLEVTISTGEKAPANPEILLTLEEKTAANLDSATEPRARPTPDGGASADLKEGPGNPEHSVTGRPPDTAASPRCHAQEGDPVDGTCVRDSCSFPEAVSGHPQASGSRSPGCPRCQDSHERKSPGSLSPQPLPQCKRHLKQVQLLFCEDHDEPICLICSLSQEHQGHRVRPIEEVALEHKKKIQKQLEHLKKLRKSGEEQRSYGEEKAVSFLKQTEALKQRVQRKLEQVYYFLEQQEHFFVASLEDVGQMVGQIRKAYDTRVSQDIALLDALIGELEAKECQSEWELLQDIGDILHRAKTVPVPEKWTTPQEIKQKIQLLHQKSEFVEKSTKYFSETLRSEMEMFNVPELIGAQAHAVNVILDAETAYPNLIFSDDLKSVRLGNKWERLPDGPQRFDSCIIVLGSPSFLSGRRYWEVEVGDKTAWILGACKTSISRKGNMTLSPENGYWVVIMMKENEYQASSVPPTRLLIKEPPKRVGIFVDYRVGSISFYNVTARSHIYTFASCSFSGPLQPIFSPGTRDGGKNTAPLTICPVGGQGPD
# Variants of: B1
# Conditions: with mefv_human MEFV
row,effect of a mutation on the interaction,Variant
1,increasing interaction strength,E250Q
2,increasing interaction strength,A230T
